From patent publication US7833548B2, “Bioactive agent release coating and controlled humidity method” (Surmodics, Inc., priority 2002, dated 2010)

Experiment: Bioactive Agent Release Assay, dextran-TRITC from discs with polymer topcoat coated under controlled humidity
Assay type: physicochemical
Conditions: pEVA (33% vinyl acetate)/pBMA topcoat over dextran-TRITC layer, PBS, 37° C.; FIG. 2
Protocol: Two solutions were prepared in order to provide a coating composition of the presently claimed invention in the form of a two part system. The first solution was an aqueous solution containing the bioactive agent, dextran-TRITC, at a concentration of 15 mg/ml. The second solution contained poly(ethylene-co-vinylacetate) with a vinyl acetate concentration of 33% (w/w) and poly(n-butyl methacrylate), with approximate weight average molecular weight of 337 kilodaltons. The poly(n-butyl methacrylate) and poly(ethylene-co-vinylacetate) were purified by extraction with organic solvents to remove impurities, e.g., monomer residues. The polymers of the second solution were dissolved in tetrahydrofuran at a concentration of 10 mg/ml. […]
A suitable Bioactive Agent Release Assay, as describe herein, can be used to determine the extent and rate of bioactive agent release under physiological conditions. In general it is desirable that less than 50% of the total quantity of the bioactive agent be released in the first 24 hours. It is frequently desirable for quantities of bioactive agent to be released for a duration of at least 30 days.
Except as otherwise provided herein, each coated disc was placed in an amber vial with 4 mls of PBS. […] The concentration of bioactive agent in each PBS sample was determined using UV spectroscopy. […]

tetramethylrhodamine isothiocyanate-Dextran [dextran-TRITC]
release rate of the bioactive agent, topcoat coated at 48% relative humidity versus 10% relative humidity: released at a faster rate
